Experiments:
Assay in all cases: IEDB peptide-MHC binding, purified MHC/competitive/radioactivity; filed as Kd, often an IC50 or EC50 that approximates it; ≥ and ≤ were set here for values at or beyond the usual limits of such assays
HLA-A*02:02 = target: HLA-A*02:02
HLA-A*02:03 = target: HLA-A*02:03
HLA-A*02:06 = target: HLA-A*02:06
HLA-A*03:01 = target: HLA-A*03:01
HLA-A*11:01 = target: HLA-A*11:01
HLA-A*68:01 = target: HLA-A*68:01
HLA-A*33:01 = target: HLA-A*33:01
HLA-A*31:01 = target: HLA-A*31:01
[1] = source organism: Vaccinia virus WR
[2] = source organism: SARS coronavirus Tor2
[3] = source organism: Mammarenavirus guanaritoense
[4] = source organism: Vaccinia virus Copenhagen
[5] = source organism: Mammarenavirus machupoense
[6] = source organism: Dengue virus 1 Brazil/97-11/1997
[7] = source organism: Lassa virus Josiah
[8] = source organism: Mammarenavirus brazilense

Row | Sequence | Kd (HLA-A*03:01; [1]) [nM] | Kd (HLA-A*11:01; [1]) [nM] | Kd (HLA-A*68:01; [1]) [nM] | Kd (HLA-A*33:01; [1]) [nM] | Kd (HLA-A*31:01; [1]) [nM] | further results
1 | DMLLNVQTL | – | – | – | – | – | Kd (HLA-A*02:02; [1]): 7400 nM; Kd (HLA-A*02:03; [1]): 5070 nM; Kd (HLA-A*02:06; [1]): 13400 nM
2 | EIARIENEMK | 5610 | 3630 | 7.11 | 7050 | ≥ 70000 | –
3 | DSDVSLIIEY | 4820 | 2730 | 205 | 4690 | 10300 | –
4 | PVSDLYTSMR | 6260 | 638 | 1.3 | 346 | 539 | –
5 | QIGEYTFEK | – | – | – | – | – | Kd (HLA-A*03:01; [2]): 48.7 nM; Kd (HLA-A*11:01; [2]): 9.93 nM; Kd (HLA-A*68:01; [2]): 589 nM; Kd (HLA-A*33:01; [2]): ≥ 22200 nM; Kd (HLA-A*31:01; [2]): 1920 nM
6 | YCLDFLFDV | – | – | – | – | – | Kd (HLA-A*02:02; [3]): 17300 nM; Kd (HLA-A*02:03; [3]): ≥ 78100 nM; Kd (HLA-A*02:06; [3]): ≥ 77000 nM
7 | NIVTFINDYA | – | – | – | – | – | Kd (HLA-A*02:02; [1]): 61.8 nM; Kd (HLA-A*02:03; [1]): 245 nM; Kd (HLA-A*02:06; [1]): 351 nM
8 | DILSIIDAK | 876 | 428 | 49.7 | 896 | ≥ 77900 | –
9 | IISIRPRVTK | 55.5 | 125 | 180 | 5690 | 425 | –
10 | QIYLSDSDNI | – | – | – | – | – | Kd (HLA-A*02:02; [1]): 1240 nM; Kd (HLA-A*02:03; [1]): 19600 nM; Kd (HLA-A*02:06; [1]): 14900 nM
11 | GLYNHNNTTY | 21 | 75.5 | 938 | 14200 | 7950 | –
12 | SLAIKNYYR | – | – | – | – | – | Kd (HLA-A*03:01; [4]): ≥ 43000 nM; Kd (HLA-A*11:01; [4]): 6060 nM; Kd (HLA-A*68:01; [4]): 6410 nM; Kd (HLA-A*33:01; [4]): ≥ 77700 nM; Kd (HLA-A*31:01; [4]): 3100 nM
13 | VLKAMHDKK | 263 | 364 | 3420 | 977 | 126 | –
14 | DFLKDDTLSK | 15000 | 5760 | 10700 | 8000 | ≥ 70000 | –
15 | SFFQEIPVFL | – | – | – | – | – | Kd (HLA-A*03:01; [5]): ≥ 70000 nM; Kd (HLA-A*11:01; [5]): ≥ 59700 nM; Kd (HLA-A*68:01; [5]): ≥ 49200 nM; Kd (HLA-A*33:01; [5]): 2410 nM; Kd (HLA-A*31:01; [5]): 613 nM
16 | LLFMILTVAA | – | – | – | – | – | Kd (HLA-A*02:03; [6]): 468 nM
17 | IIAVFDSKLI | – | – | – | – | – | Kd (HLA-A*02:02; [1]): 758 nM; Kd (HLA-A*02:03; [1]): 595 nM; Kd (HLA-A*02:06; [1]): 8510 nM
18 | SLQVCVQTVR | – | – | – | – | – | Kd (HLA-A*03:01; [2]): 13300 nM; Kd (HLA-A*11:01; [2]): 7030 nM; Kd (HLA-A*68:01; [2]): 5790 nM; Kd (HLA-A*33:01; [2]): 5110 nM; Kd (HLA-A*31:01; [2]): 470 nM
19 | STSPTRTWKV | – | – | – | – | – | Kd (HLA-A*02:02; [1]): 397 nM; Kd (HLA-A*02:03; [1]): 717 nM; Kd (HLA-A*02:06; [1]): 504 nM

Row | Sequence | Kd (HLA-A*03:01; [1]) [nM] | Kd (HLA-A*11:01; [1]) [nM] | Kd (HLA-A*68:01; [1]) [nM] | Kd (HLA-A*33:01; [1]) [nM] | Kd (HLA-A*31:01; [1]) [nM] | further results
20 | NMWREILSNT | – | – | – | – | – | Kd (HLA-A*02:02; [1]): 6060 nM; Kd (HLA-A*02:03; [1]): 56.1 nM; Kd (HLA-A*02:06; [1]): 12000 nM
21 | ILAALFMYY | 0.175 | 0.309 | 36.3 | 16000 | 6400 | –
22 | DLLFNEKLK | 1920 | 188 | 29.2 | 744 | 8150 | –
23 | SSRVDRYSK | 65.9 | 16.9 | 611 | 1210 | 266 | –
24 | LVYIFEPEK | 382 | 24.9 | 130 | ≥ 77700 | ≥ 21100 | –
25 | HIIDSFNIR | 1680 | 149 | 0.448 | 732 | 1.12 | –
26 | SAVIDALPR | – | – | – | – | – | Kd (HLA-A*03:01; [7]): 11000 nM; Kd (HLA-A*11:01; [7]): 222 nM; Kd (HLA-A*68:01; [7]): 53.3 nM; Kd (HLA-A*33:01; [7]): 15300 nM; Kd (HLA-A*31:01; [7]): 2120 nM
27 | GSSKGNCAIK | 25 | 26.1 | 23.1 | ≥ 29100 | 3480 | –
28 | RQDYRRSINV | – | – | – | – | – | Kd (HLA-A*02:02; [1]): 1010 nM; Kd (HLA-A*02:03; [1]): 375 nM; Kd (HLA-A*02:06; [1]): 2220 nM
29 | NVKSKLLWFL | – | – | – | – | – | Kd (HLA-A*02:02; [1]): 2290 nM; Kd (HLA-A*02:03; [1]): 633 nM; Kd (HLA-A*02:06; [1]): ≥ 31000 nM
30 | LNTPYCNYTK | – | – | – | – | – | Kd (HLA-A*03:01; [8]): 15300 nM; Kd (HLA-A*11:01; [8]): 10800 nM; Kd (HLA-A*68:01; [8]): 695 nM; Kd (HLA-A*33:01; [8]): 32 nM; Kd (HLA-A*31:01; [8]): 6410 nM
31 | TLLIKTLSPA | – | – | – | – | – | Kd (HLA-A*02:02; [1]): 1.05 nM; Kd (HLA-A*02:03; [1]): 1.17 nM; Kd (HLA-A*02:06; [1]): 0.728 nM
32 | NIQKITVFNK | 47.4 | 5.8 | 30.5 | 1200 | 3.89 | –
33 | HILHAYCGI | – | – | – | – | – | Kd (HLA-A*02:02; [1]): 123 nM; Kd (HLA-A*02:03; [1]): 66.5 nM; Kd (HLA-A*02:06; [1]): 359 nM
34 | HVCNATDFWR | 6760 | 450 | 37.9 | 383 | 8.14 | –
35 | LLMLVTPSMA | – | – | – | – | – | Kd (HLA-A*02:03; [6]): 23.6 nM
36 | CMTSCCSCLK | – | – | – | – | – | Kd (HLA-A*03:01; [2]): 62.7 nM; Kd (HLA-A*11:01; [2]): 80.8 nM; Kd (HLA-A*68:01; [2]): 40.2 nM; Kd (HLA-A*33:01; [2]): 1860 nM; Kd (HLA-A*31:01; [2]): 800 nM
37 | RSAFNDDGIY | ≥ 70100 | ≥ 66400 | ≥ 31800 | ≥ 70000 | ≥ 70000 | –
